# According to article PMC4977486, “A/T Run Geometry of B-form DNA Is Independent of Bound Methyl-CpG Binding Domain, Cytosine Methylation and Flanking Sequence”:
# B1: methylated BDNFProIII 20-mer (dsDNA)
# DNA 1: TCTGGAACGGAATTCTTCTA
# DNA 2: ATAGAAGAATTCCGTTCCAG
# modifications: 5-methylcytosine at position 8 of strand 1 and position 13 of strand 2 (C33 in duplex numbering)
# Columns and labels:
# MeCP2 MBD wild type = MeCP2 MBD wild type (UniProt P51608 78-163); test: EMSA; 2, 4, 8 uM protein; 1.8 uM DNA; 1.8 uM poly(dG-dC) competitor; reference; EMSA: 100 mM Tris-HCl pH 7.5, 500 mM KCl, 10 mM DTT, 1.8 uM poly(dG-dC), room temperature 30 min; 8% native PAGE in Tris-glycine pH 8.3 at 277 K; conditions: protein: recombinant; 5' overhang 1 nt on each strand (T and A), 19 bp
# MeCP2 MBD-TRD wild type = MeCP2 MBD-TRD wild type (UniProt P51608 78-310); test: as above; conditions: protein: recombinant; 5' overhang 1 nt on each strand (T and A), 19 bp
binder,measurement,setting,value
B1,binding signal,MeCP2 MBD wild type,100 % of wild-type MBD complex
same,binding signal,MeCP2 MBD-TRD wild type,100 % of wild-type MBD-TRD complex
